Reference: patent US20050287607A1
No end group written: not given here. *: point of attachment. Biotin = O=C1N[C@H]2[C@H](CS[C@H]2CCCCC(=O)*)N1

Columns and labels:
Test in all cases: flow cytometry, R4A-tetramer staining of splenocytes
[1] = biological target: peptide-reactive B cells (surface immunoglobulin) in splenocytes of BALB/c mice immunized with MAP-peptide (R4A peptide on a branched polylysine backbone) (mouse)
[2] = biological target: splenocytes of BALB/c mice immunized with MAP-core (mouse)
[3] = biological target: splenocytes of BALB/c mice immunized with adjuvant alone (mouse)

B1: R4A-tetramer (tetrameric fluorochrome-labeled form of the R4A peptide) (peptide, part only; not given: labeled streptavidin, not shown: large carriers)
peptide: Biotin-DWEYSLWLSN
modifications: also: tetramer with fluorochrome-labeled streptavidin/neutravidin
- frequency of cells staining (percent of gated cells) (% of gated cells) [1]: 1
- frequency of tetramer-binding cells (percent of the gated population) (% of the gated population) [2]: < 0.05
- frequency of tetramer-binding cells (percent of the gated population) (% of the gated population) [3]: < 0.05
